10 molecules from patent US12077599 (SEOUL NATIONAL UNIVERSITY R AND DB FOUNDATION NATIONAL …, dated 2024) can be followed below.

B1: alanine-substituted ROS1-hFc fusion protein, Gly42 replaced with alanine (Fc fusion, not shown: a dimerising Fc or GST; small tags and cut ends)
chain: CVTNLAQQLDLGTPHNLSEPCIQGCHFWNSVDQKNCALKCRESCEVGCSSAEGAYEEEVLENADLPTAPFASSIGSHNMTLRWKSANFSGVKYIIQWKYAQLLGSWTYTKTVSRPSYVVKPLHPFTEYIFRVVWIFTAQLQLYSPPSPSYRTHPHGVPETAPLIRNIESSSPDTVEVSWDPPQFPGGPILGYNLRLISKNQKLDAGTQRTSFQFYSTLPNTIYRFSIAAVNEVGEGPEAESSITTSSSAVQQEE
notes: One of the 13 single alanine mutants from Gly42 to Ser54; also called G42A
B2: alanine-substituted ROS1-hFc fusion protein, Gln43 replaced with alanine (Fc fusion, not shown: a dimerising Fc or GST; small tags and cut ends)
chain: CVTNLGAQLDLGTPHNLSEPCIQGCHFWNSVDQKNCALKCRESCEVGCSSAEGAYEEEVLENADLPTAPFASSIGSHNMTLRWKSANFSGVKYIIQWKYAQLLGSWTYTKTVSRPSYVVKPLHPFTEYIFRVVWIFTAQLQLYSPPSPSYRTHPHGVPETAPLIRNIESSSPDTVEVSWDPPQFPGGPILGYNLRLISKNQKLDAGTQRTSFQFYSTLPNTIYRFSIAAVNEVGEGPEAESSITTSSSAVQQEE
notes: also called Q43A
B4: alanine-substituted ROS1-hFc fusion protein, Asp46 replaced with alanine (Fc fusion, not shown: a dimerising Fc or GST; small tags and cut ends)
chain: CVTNLGQQLALGTPHNLSEPCIQGCHFWNSVDQKNCALKCRESCEVGCSSAEGAYEEEVLENADLPTAPFASSIGSHNMTLRWKSANFSGVKYIIQWKYAQLLGSWTYTKTVSRPSYVVKPLHPFTEYIFRVVWIFTAQLQLYSPPSPSYRTHPHGVPETAPLIRNIESSSPDTVEVSWDPPQFPGGPILGYNLRLISKNQKLDAGTQRTSFQFYSTLPNTIYRFSIAAVNEVGEGPEAESSITTSSSAVQQEE
notes: also called D46A
B6: alanine-substituted ROS1-hFc fusion protein, Gln44 replaced with alanine (Fc fusion, not shown: a dimerising Fc or GST; small tags and cut ends)
chain: CVTNLGQALDLGTPHNLSEPCIQGCHFWNSVDQKNCALKCRESCEVGCSSAEGAYEEEVLENADLPTAPFASSIGSHNMTLRWKSANFSGVKYIIQWKYAQLLGSWTYTKTVSRPSYVVKPLHPFTEYIFRVVWIFTAQLQLYSPPSPSYRTHPHGVPETAPLIRNIESSSPDTVEVSWDPPQFPGGPILGYNLRLISKNQKLDAGTQRTSFQFYSTLPNTIYRFSIAAVNEVGEGPEAESSITTSSSAVQQEE
notes: also called Q44A

The target in one assay is T1, bovine serum albumin (bovine, UniProt P02769 25-607).
T1 construct: Negative control coating in the alanine scanning ELISA; also called BSA
Nature of the assay: ELISA, BSA coated, ROS1-hFc mutant in solution, HRP anti-hFc. Here is the method:
(§1) For alanine scanning mutagenesis of the 3B20 scFv, microtiter plates (Corning Costar) were coated with 100 ng of the 3B20 scFv-Cκ fusion protein, BSA, or the irrelevant scFv-Cκ fusion protein overnight at 4° ° C. After blocking, the plates were incubated with alanine-substituted ROS1-human antibody Fc (hFc) fusion proteins (each amino acid residue from the 42th amino acid residue (Gly) to the 54th amino acid residue (Ser) was replaced with alanine) or a wild type ROS1-hFc fusion protein. The amount of bound fusion protein was determined using an HRP-conjugated rabbit anti-human IgG Fc antibody (Thermo Fisher Scientific, Rockford, IL, USA).
(§2) Example 2. Epitope Mapping of the 3B20 scFv by Alanine Scanning Mutagenesis Assay To further confirm the epitope of the 3B20 scFv, alanine scanning mutagenesis assay was performed using recombinant ROS1 proteins corresponding to amino acids 37-290. First, alanine-substituted ROS1 mutants in which any one of amino acid residues from Gly42 to Ser54 of ROS1 was substituted were prepared. After coating the microtiter plate well with the 3B20 scFv-Cκ fusion protein, BSA or irrelevant scFv-Cκ fusion protein, the plate was incubated with the alanine-substituted ROS1-hFc fusion protein or wild-type ROS1-hFc fusion protein. The amount of the ROS1-hFc fusion protein combined to the plate was measured using the HRP-conjugated anti-hFc antibody and ATBS solution. The obtained result was shown in FIG. 2a (3B20 scFv-Cκ fusion protein coating), 2b (BSA coating) and 2c (irrelevant scFv-Cκ fusion protein coating).

Assay [1] deals with T2, ROS1 synthetic peptide (amino acids 39-56 of ROS1 combined to GGGC) conjugated to BSA (human, not fully specified; conjugated to bovine serum albumin (BSA) or ovalbumin (OVA)).
T2 peptide: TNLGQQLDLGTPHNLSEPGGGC
Put plainly: phage ELISA after five rounds of biopanning on the peptide conjugate. The source says:
Three White Leghorn chickens were immunized and boosted three times with the synthetic peptide ([…] […] (SEQ ID NO: 16); fusion polypeptide in which the 39th to 56th amino acid regions of ROS1 (GenBank Accession No. NP_002935.2) combined to "GGGC") conjugated to keyhole limpet hemocyanin (Peptron; Daejun, S. Korea). A phage display of a chicken single-chain variable fragment (scFv) antibody library was constructed [See C. F. Barbas, Phage Display: a Laboratory Manual, Cold Spring Harbor Laboratory Press, Cold Spring Harbor, N Y, 2001]. After five rounds of biopanning on the ROS1 synthetic peptide ([…]-[…]) conjugated to either bovine serum albumin (BSA) or ovalbumin (OVA), the single-chain variable fragment (scFv)-displaying phages were subjected to enzyme-linked immunosorbent assay (ELISA) [See C. F. Barbas, Phage Display: a Laboratory Manual, Cold Spring Harbor Laboratory Press, Cold Spring Harbor, N Y, 2001; S. Park, D. H. Lee, J. G. Park, Y. T. Lee, J. Chung, A sensitive enzyme immunoassay for measuring cotinine in passive smokers, Clin. Chim. Acta 411 (2010) 1238-1242].

Assay [2] deals with B1. Nature of the assay: alanine scanning ELISA, 3B20 scFv-Cκ coated, ROS1-hFc mutant in solution, HRP anti-hFc. The procedure:
as §1, §2
Background: In an ELISA, binding on a coated surface is turned into a signal by an enzyme label.

In assay [3] the target is B2. Described as above. The procedure: as §1, §2
The target in assay [4] is B6. Described as above. Here is the method: as §1, §2
Assay [5] has as its target B4. Described as above. Here is the method:
as §1, §2

In assay [6] the target is T3, Stress-70 protein, mitochondrial (GRP75), from HEK293T cell lysate (human, UniProt P38646 47-679).
T3 construct: Identified by LC-MS/MS against the IPI human database; also called IPI00007765 (+1)
Nature of the assay: immunoprecipitation with 3B20 scFv-rFc from HEK293T lysates, LC-MS of the 70 kDa band. The procedure: (§3) HEK293T cell lines overexpressing either ROS1 or GFP were lysed in cold lysis buffer [1% Triton X-100, 150 mM NaCl, 50 mM Tris (pH 8.0)] containing 1 mM phenylmethane sulfonyl fluoride (Merck KGaA, Darmstadt, Germany) a protease inhibitor cocktail (Roche), and a phosphatase inhibitor cocktail (Roche). Lysates were incubated with 3B20 scFv or 3B20 scFv-G1K fused to the rFc fusion protein (5 μg/mL) and protein A-conjugated agarose beads (RepliGen, Waltham, MA, USA). After washing, proteins bound to beads were eluted by boiling in NuPAGE LDS Sample Buffer (Thermo Fisher Scientific) and subjected to SDS-PAGE and immunoblotting (See Reference example 4). The eluted proteins separated by SDS-PAGE were visualized using Coomassie Brilliant Blue R250 (Merck). […]
(§4) To investigate the proteins reactive to 3B20 scFv, immunoprecipitation was performed using a 3B20 scFv-rFc fusion protein from HEK293T cells transfected with lentiviral vector encoding human ROS1 (full-length) or GFP (control). […] Bands corresponding to 70 kDa and 260 kDa were excised from the gel and analyzed by liquid chromatography/MS. The obtained result was shown in FIG. 1c, and the list of proteins analyzed in (A) and (B) bands represented by arrows in FIG. 1c was shown in the following Table 2. As expected, ROS1 (accession number: IPI0028965; SEQ ID NO: 9) was detected in a band of 260 kDa.

In assay [7] the target is T4, Heat shock 70 kDa protein 1A/1B, from HEK293T cell lysate (human, UniProt P0DMV8 2-641).
T4 construct: Identified by LC-MS/MS against the IPI human database; also called Hsp70; HSP70
The assay is described as above. Here is the method:
as §3, §4

T1 sequence (P02769 25-607 limits assumed): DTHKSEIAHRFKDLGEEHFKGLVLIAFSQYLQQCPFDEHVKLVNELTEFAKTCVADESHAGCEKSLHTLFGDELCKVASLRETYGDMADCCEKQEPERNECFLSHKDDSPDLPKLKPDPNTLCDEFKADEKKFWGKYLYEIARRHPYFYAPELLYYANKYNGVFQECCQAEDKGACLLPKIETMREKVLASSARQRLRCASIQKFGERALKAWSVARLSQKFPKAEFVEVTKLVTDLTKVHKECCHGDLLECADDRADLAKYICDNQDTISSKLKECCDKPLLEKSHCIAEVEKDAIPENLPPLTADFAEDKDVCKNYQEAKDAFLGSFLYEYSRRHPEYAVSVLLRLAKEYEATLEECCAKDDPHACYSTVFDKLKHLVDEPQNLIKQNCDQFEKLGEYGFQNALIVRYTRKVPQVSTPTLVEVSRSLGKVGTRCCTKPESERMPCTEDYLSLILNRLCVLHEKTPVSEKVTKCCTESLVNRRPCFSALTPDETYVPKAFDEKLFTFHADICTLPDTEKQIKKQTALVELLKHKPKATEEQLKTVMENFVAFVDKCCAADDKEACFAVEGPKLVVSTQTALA
T3 sequence (P38646 47-679 limits assumed): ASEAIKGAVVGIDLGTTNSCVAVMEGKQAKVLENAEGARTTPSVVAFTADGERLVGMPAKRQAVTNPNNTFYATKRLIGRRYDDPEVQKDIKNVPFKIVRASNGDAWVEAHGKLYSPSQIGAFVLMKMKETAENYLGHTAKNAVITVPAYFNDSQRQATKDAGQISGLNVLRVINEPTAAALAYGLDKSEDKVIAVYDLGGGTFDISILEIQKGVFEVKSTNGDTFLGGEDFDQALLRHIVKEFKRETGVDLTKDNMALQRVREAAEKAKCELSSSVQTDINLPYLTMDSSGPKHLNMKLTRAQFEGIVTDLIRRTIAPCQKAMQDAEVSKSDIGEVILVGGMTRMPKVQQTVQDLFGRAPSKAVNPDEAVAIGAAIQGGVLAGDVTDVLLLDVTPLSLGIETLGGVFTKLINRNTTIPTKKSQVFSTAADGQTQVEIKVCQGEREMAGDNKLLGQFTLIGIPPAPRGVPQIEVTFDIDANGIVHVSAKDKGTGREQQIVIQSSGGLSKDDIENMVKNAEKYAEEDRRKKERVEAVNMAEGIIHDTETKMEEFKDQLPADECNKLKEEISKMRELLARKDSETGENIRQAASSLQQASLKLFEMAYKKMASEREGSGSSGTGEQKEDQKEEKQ
T4 sequence (P0DMV8 2-641 limits assumed): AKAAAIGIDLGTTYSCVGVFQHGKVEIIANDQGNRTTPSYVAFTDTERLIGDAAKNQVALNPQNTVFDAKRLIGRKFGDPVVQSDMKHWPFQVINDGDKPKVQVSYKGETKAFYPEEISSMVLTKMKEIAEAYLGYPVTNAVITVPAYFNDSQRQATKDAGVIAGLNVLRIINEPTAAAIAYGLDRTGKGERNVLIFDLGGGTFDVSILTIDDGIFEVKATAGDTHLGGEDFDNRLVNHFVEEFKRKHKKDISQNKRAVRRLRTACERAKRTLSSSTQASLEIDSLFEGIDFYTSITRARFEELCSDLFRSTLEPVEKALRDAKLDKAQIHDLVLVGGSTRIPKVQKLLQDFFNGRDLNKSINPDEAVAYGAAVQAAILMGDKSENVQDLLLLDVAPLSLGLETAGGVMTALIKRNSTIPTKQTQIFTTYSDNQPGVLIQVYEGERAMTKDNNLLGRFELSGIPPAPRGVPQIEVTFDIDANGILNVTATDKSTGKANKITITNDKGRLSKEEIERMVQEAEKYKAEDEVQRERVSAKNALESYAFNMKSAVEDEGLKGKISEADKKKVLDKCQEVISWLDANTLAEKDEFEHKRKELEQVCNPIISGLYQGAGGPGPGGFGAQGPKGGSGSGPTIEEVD

B1: in the assay with bovine serum albumin, the binding result is listed as “no binding”.

Take B2: in the assay with bovine serum albumin, the binding result is given as “no binding”.

B3: alanine-substituted ROS1-hFc fusion protein, L47A mutant (Fc fusion, not shown: a dimerising Fc or GST; small tags and cut ends)
chain: CVTNLGQQLDAGTPHNLSEPCIQGCHFWNSVDQKNCALKCRESCEVGCSSAEGAYEEEVLENADLPTAPFASSIGSHNMTLRWKSANFSGVKYIIQWKYAQLLGSWTYTKTVSRPSYVVKPLHPFTEYIFRVVWIFTAQLQLYSPPSPSYRTHPHGVPETAPLIRNIESSSPDTVEVSWDPPQFPGGPILGYNLRLISKNQKLDAGTQRTSFQFYSTLPNTIYRFSIAAVNEVGEGPEAESSITTSSSAVQQEE
notes: also called L47A mutant of ROS1 protein
B3: in the assay with bovine serum albumin, the binding result is listed as “no binding”. Same read-out and setting: the entry for B4 is “no binding”.

B5: alanine-substituted ROS1-hFc fusion protein, G48A mutant (Fc fusion, not shown: a dimerising Fc or GST; small tags and cut ends)
chain: CVTNLGQQLDLATPHNLSEPCIQGCHFWNSVDQKNCALKCRESCEVGCSSAEGAYEEEVLENADLPTAPFASSIGSHNMTLRWKSANFSGVKYIIQWKYAQLLGSWTYTKTVSRPSYVVKPLHPFTEYIFRVVWIFTAQLQLYSPPSPSYRTHPHGVPETAPLIRNIESSSPDTVEVSWDPPQFPGGPILGYNLRLISKNQKLDAGTQRTSFQFYSTLPNTIYRFSIAAVNEVGEGPEAESSITTSSSAVQQEE
notes: also called G48A mutant of ROS1 protein
As to B5, in the assay with bovine serum albumin, the binding result was “no binding”. Same read-out and setting: the entry for B6 is “no binding”.

B7: alanine-substituted ROS1-hFc fusion protein, L45A mutant (Fc fusion, not shown: a dimerising Fc or GST; small tags and cut ends)
chain: CVTNLGQQADLGTPHNLSEPCIQGCHFWNSVDQKNCALKCRESCEVGCSSAEGAYEEEVLENADLPTAPFASSIGSHNMTLRWKSANFSGVKYIIQWKYAQLLGSWTYTKTVSRPSYVVKPLHPFTEYIFRVVWIFTAQLQLYSPPSPSYRTHPHGVPETAPLIRNIESSSPDTVEVSWDPPQFPGGPILGYNLRLISKNQKLDAGTQRTSFQFYSTLPNTIYRFSIAAVNEVGEGPEAESSITTSSSAVQQEE
notes: also called L45A mutant of ROS1 protein
Consider B7, for which, in the assay with bovine serum albumin, the binding result is reported as “no binding”.

B8: 3B20 scFv (phage-displayed clone) (scFv)
scFv: LTQPSSVSANLGGTVKITCSGGSYGYGWYQQKAPGSAPVTVIYDNTNRPSDIPSRFSGSKSGSTGTLTITGVQVEDEAVYYCGSADSSSIATFGAGTTLTVLGQSSRSSGGGGSSGGGGSAVTLDESGGGLQTPGGTLSLVCKASGFSFSDRGMHWMRQAPGKGLEYVGAISGDGYITHYGAAVKGRATISRDNGQSTVRLQLNNLRAEDTATYYCTRGGGGNIDAWGHGTEVIVSSTS
notes: the phage coat fusion is not described
As for B8, the binding result in assay [1] was “binds”.

B9: 3B20 scFv-Cκ fusion protein (scFv)
chain: LTQPSSVSANLGGTVKITCSGGSYGYGWYQQKAPGSAPVTVIYDNTNRPSDIPSRFSGSKSGSTGTLTITGVQVEDEAVYYCGSADSSSIATFGAGTTLTVLGQSSRSSGGGGSSGGGGSAVTLDESGGGLQTPGGTLSLVCKASGFSFSDRGMHWMRQAPGKGLEYVGAISGDGYITHYGAAVKGRATISRDNGQSTVRLQLNNLRAEDTATYYCTRGGGGNIDAWGHGTEVIVSSTS
notes: Coated on the plate in the alanine scanning ELISA; not shown: human kappa light chain constant region (Cκ)
Take B9: the binding result in assay [2], in assay [3], in assay [4] and in assay [5] was “binds” throughout.

B10: 3B20 scFv-rFc fusion protein (Fc fusion, rabbit)
chain: LTQPSSVSANLGGTVKITCSGGSYGYGWYQQKAPGSAPVTVIYDNTNRPSDIPSRFSGSKSGSTGTLTITGVQVEDEAVYYCGSADSSSIATFGAGTTLTVLGQSSRSSGGGGSSGGGGSAVTLDESGGGLQTPGGTLSLVCKASGFSFSDRGMHWMRQAPGKGLEYVGAISGDGYITHYGAAVKGRATISRDNGQSTVRLQLNNLRAEDTATYYCTRGGGGNIDAWGHGTEVIVSSTS
notes: domain: fragment crystallizable region Fc (rFc); scFv fused with rabbit Fc, expressed from modified pCEP4; also called 3B20-rFc; scFv(3B20)-rFc fusion protein; not shown: rabbit antibody fragment crystallizable region Fc (rFc)
Regarding B10, the binding result in assay [6] and in assay [7] was “binds” each time.
